Results published in US20200114017A1 (BIONOMICS, published 2020).

Columns and labels:
[1] = target: T1, human LGR5 (leucine-rich repeat containing G-protein-coupled receptor 5) (human, UniProt O75473 22-561); test: cell-based or functional assay
T1 sequence: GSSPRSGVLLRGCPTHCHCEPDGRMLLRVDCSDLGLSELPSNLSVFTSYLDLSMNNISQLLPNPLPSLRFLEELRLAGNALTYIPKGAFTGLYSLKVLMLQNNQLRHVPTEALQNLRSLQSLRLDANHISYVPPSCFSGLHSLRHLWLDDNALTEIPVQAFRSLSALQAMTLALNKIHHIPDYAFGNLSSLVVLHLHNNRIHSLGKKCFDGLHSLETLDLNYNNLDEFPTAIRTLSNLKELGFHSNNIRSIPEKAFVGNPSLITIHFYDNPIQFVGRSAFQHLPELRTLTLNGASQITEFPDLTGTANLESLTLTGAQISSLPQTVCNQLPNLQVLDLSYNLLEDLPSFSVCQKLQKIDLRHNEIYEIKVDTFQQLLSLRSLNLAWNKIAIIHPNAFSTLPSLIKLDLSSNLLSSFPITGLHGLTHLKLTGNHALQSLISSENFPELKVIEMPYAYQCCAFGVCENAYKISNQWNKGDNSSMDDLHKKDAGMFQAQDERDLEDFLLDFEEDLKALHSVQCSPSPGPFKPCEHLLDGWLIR

[2] = target: T1, human LGR5 (leucine-rich repeat …); test: FACS on CHO cells expressing recombinant LGR5

B1: 18G7Ch (antibody, human IgG1, kappa, V domains shown)
VH: QVQLQQSGAELVKPGASVKISCKATGYTFSGYWIEWVKQRPGHGLEWIGEILPGSDSTNYNEKFKGKATFTADTSSNTVYMQFSSLTSEDSAVYYCARSGYYGSSQYWGQGTTLTVSS
VL: NIVLTQSPASLAVSLGQRATISCRASESVDSYGNSFMHWYQQKPGQPPKLLIYLTSNLESGVPARFSGSGSRTDFTLTIDPVEADDAATYYCQQNNEDPRTFGGGTKLEIKR
- IC50 (nM) of cell viability, MTS assay, primary antibody + secondary ADC (NL-MMAF) [1]: 0.115 nM

B2: 18G7H6A1 (antibody, human IgG1, kappa, V domains shown)
VH: EVQLVQSGAEVKKPGESLRISCKGSGYSFTAYWIEWVRQAPGKGLEWIGEILPGSDSTNYNEKFKGHVTISADKSISTAYLQWSSLKASDTAVYYCARSGYYGSSQYWGQGTLVTVSS
VL: DIVLTQSPASLAVSPGQRATITCRASESVDSYGNSFMHWYQQKPGQPPKLLIYLTSNLESGVPDRFSGSGSGTDFTLTINPVEANDAATYYCQQNAEDPRTFGGGTKLEIKR
- EC50 [2]: < 10 nM
